Data reported in patent US11820827B2, “Methods of treating myelodysplastic syndrome and acute myeloid leukemia with nonfucosylated anti-CD70 antibodies” (Seagen Inc., priority 2019, dated 2023).
Several values for one entry are separate records, joined by “and”; a condition that tells them apart may be missing. Equal values may be shown once.

Columns and labels:
[1] = test system: T regulatory cells (Treg) in PBMCs; experiment: Treg depletion in PBMCs; type: cell-based, human; settings: 24 hours
Method: At the end of the experiment cells were stained with Zombie Aqua Viability Dye and total viable Treg naïve and memory CD4 and CD8 T cell numbers were assessed. […] Fucosylated (WT Clone 13 IgG1) and nonfucosylated (SEA Clone 13 IgG1) antibodies targeting TIGIT were used as positive controls (FIG. 4E-4H).

[2] = target: T1, high affinity human FcγRIIIa receptor (158V) (Homo sapiens, UniProt P08637, F176V); experiment: CHO-FcγRIIIa binding assay by flow cytometry (human receptor); settings: compared with SGN-70
T1 construct: expressed in transfected cells; host or cells: CHO
Method: While BLI methodology is used to assess receptor affinity by monitoring binding kinetics, it is primarily set to monitor monovalent binding. To add to BLI data sets, flow cytometry was also performed (FIGS. 2A and 2B).
The CHO-FcγRIIIa binding assay was conducted as follows: • 1. Thaw cells: Cells were thawed on 11 Jun. 2019, and cultured in culture medium for 1 week to recover from freeze-thaw.
• 2. Wash: 60 million cells were washed 1× in PBS in 50-mL tubes. Cells were counted again and resuspended at 2.2×10^6/mL. Then 0.1 mL was pipetted per well • 3. Make 10× dilutions of antibody: The 10× dilutions were prepared (3 mg/mL, 1 mg/mL, 0.3 mg/mL, 0.1 mg/mL, 0.03 mg/mL, 0.01 mg/mL, 0.003 mg/mL, 0.001 mg/mL, and 0.0003 mg/mL in the dilution plate).
• 4. Aspirate: Wash was aspirated in wells and 100 μL of the corresponding antibody dilutions was pipetted with a multichannel pipet. The corresponding concentrations were 300, 100, 30, 10, 3, 1, […] μg/mL in triplicate. The concentrations were decreased vertically down the 96-well round bottom plate. • 5. […] Analyze samples: Samples were analyzed by flow cytometry in high throughput sampler (HTS) mode on the Attune. Median fluorescence intensity (MFI) was graphed (geomean), and equilibrium dissociation constant (KD) for each was calculated in PRIZM

[3] = test system: MV-411 acute myeloid leukemia model; experiment: Tumor growth in the MV-411 acute myeloid leukemia xenograft model (Example 7); type: in vivo, SCID mice; settings: for tumor volume, individual animals: h1F6SEA 10 mg/kg Q4dx4

T1 sequence (P08637 17-254 F176V): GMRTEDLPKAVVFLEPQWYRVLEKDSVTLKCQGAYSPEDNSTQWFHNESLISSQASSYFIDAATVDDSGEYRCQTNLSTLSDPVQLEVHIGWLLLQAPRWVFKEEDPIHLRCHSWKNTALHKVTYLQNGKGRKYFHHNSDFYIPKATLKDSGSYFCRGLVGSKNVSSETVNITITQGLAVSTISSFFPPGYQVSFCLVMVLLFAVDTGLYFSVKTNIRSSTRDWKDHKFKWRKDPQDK

B1: SEA-CD70: humanized, nonfucosylated monoclonal IgG1 antibody targeting CD70 (nonfucosylated h1F6) (antibody, chains of the INN, looked up, V domains shown)
VH: QVQLVQSGAEVKKPGASVKVSCKASGYTFTNYGMNWVRQAPGQGLKWMGWINTYTGEPTYADAFKGRVTMTRDTSISTAYMELSRLRSDDTAVYYCARDYGDYGMDYWGQGTTVTVSS
VL: DIVMTQSPDSLAVSLGERATINCRASKSVSTSGYSFMHWYQQKPGQPPKLLIYLASNLESGVPDRFSGSGSGTDFTLTISSLQAEDVAVYYCQHSREVPWTFGQGTKVEIK
modifications: nonfucosylated
T regulatory cell depletion ([1]; donor homozygous for high affinity FcγRIIIa (V/V 158)): did not induce Treg cell depletion | T regulatory cell depletion ([1]; donor homozygous for low affinity FcγRIIIa (F/F 158)): Neither CD70 targeting antibody induced T regulatory cell depletion | binding affinity to human FcγRIIIa on CHO cells [2]: bound with higher affinity than SGN-70 | delay in tumor growth ([3]; from time to 10× fold change versus untreated, h1F6SEA 10 mg/kg, azacitidine 5 mg/kg): 18% | tumor volume, individual animals ([3]; day 9 post implant): 51.0 mm^3 and 59.2 mm^3 and 59.0 mm^3 and 52.1 mm^3 and 54.1 mm^3 and 58.6 mm^3 | tumor volume, individual animals ([3]; day 13 post implant): 47.1 mm^3 and 56.4 mm^3 and 72.6 mm^3 and 48.7 mm^3 and 68.7 mm^3 and 59.9 mm^3 | tumor volume, individual animals ([3]; day 16 post implant): 65.3 mm^3 and 60.4 mm^3 and 98.2 mm^3 and 90.8 mm^3 and 83.5 mm^3 and 67.6 mm^3 | tumor volume, individual animals ([3]; day 20 post implant): 63.1 mm^3 and 42.0 mm^3 and 165.9 mm^3 and 151.0 mm^3 and 142.8 mm^3 and 93.1 mm^3 | tumor volume, individual animals ([3]; day 24 post implant): 161.4 mm^3 and 70.9 mm^3 and 266.6 mm^3 and 336.7 mm^3 and 299.1 mm^3 and 165.4 mm^3 | tumor volume, individual animals ([3]; day 27 post implant): 254.6 mm^3 and 0.0 mm^3 and 392.1 mm^3 and 447.0 mm^3 and 337.6 mm^3 and 231.0 mm^3 | tumor volume, individual animals ([3]; day 30 post implant): 352.6 mm^3 and 0.0 mm^3 and 661.5 mm^3 and 831.7 mm^3 and 494.8 mm^3 and 365.1 mm^3 | tumor volume, individual animals ([3]; day 34 post implant): 666.1 mm^3 and 15.4 mm^3 and 998.9 mm^3 and 1042.3 mm^3 and 655.6 mm^3 and 531.6 mm^3 | tumor volume, individual animals ([3]; day 38 post implant): 988.1 mm^3 and 63.1 mm^3 and 1005.8 mm^3 and 751.7 mm^3 | tumor volume, individual animals ([3]; day 41 post implant): 66.6 mm^3 and 1024.7 mm^3 | tumor growth delay in one mouse of the group ([3]; h1F6SEA 10 mg/kg, extended the length of the study): very robust tumor growth delay
